Assays:
HveA on CHO-HveA cells = HveA on CHO-HveA cells (UniProt Q92956); assay: cell-based or functional assay
HveC on CHO-HveC cells = HveC on CHO-HveC cells (UniProt Q15223); assay: cell-based or functional assay
HveC on CHO-HveC cells, sequence (Q15223 31-517 limits assumed): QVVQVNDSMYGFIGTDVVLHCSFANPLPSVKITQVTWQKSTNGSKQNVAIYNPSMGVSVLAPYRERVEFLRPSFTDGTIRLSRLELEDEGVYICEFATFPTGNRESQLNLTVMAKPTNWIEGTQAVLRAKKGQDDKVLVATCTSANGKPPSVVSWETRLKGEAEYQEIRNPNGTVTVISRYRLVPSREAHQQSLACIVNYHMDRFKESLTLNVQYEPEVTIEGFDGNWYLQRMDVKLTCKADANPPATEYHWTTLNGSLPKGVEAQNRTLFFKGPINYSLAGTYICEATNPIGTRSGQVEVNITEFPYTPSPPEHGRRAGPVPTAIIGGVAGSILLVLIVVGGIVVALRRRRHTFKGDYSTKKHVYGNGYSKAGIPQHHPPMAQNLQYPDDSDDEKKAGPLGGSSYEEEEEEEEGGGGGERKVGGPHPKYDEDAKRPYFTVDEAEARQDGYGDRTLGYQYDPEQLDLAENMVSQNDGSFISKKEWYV

HveA on CHO-HveA cells, sequence (Q92956 39-283 limits assumed): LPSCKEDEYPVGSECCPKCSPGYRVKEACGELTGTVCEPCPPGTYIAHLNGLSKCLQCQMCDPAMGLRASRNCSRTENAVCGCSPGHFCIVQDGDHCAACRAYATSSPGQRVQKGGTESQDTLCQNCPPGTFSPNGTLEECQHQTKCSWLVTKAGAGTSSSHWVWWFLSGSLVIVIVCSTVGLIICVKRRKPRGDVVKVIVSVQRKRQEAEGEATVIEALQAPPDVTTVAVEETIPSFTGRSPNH

Row | Substance | % Complementation, CHO-HveA (HveA on CHO-HveA cells) | % Complementation, CHO-HveC (HveC on CHO-HveC cells)
1 | gD P31G (from UniProt A1Z0Q5 26-394) (ligand) | 0% | 100%
2 | gDΔ10-16 (ligand) | 0% | 100%
3 | gD L44P (ligand) | 53% | 71%
4 | gD D30H (from UniProt A1Z0Q5 26-394) (ligand) | 0% | 6%
5 | gD D26V (ligand) | 0% | 26%
6 | gD L25T (from UniProt A1Z0Q5 26-394) (ligand) | 0% | 3%
7 | wild-type gD (HSV-1 strain KOS) (ligand) | 100% | 100%
8 | gD K1D (ligand) | 100% | 100%
9 | gD Q27H (ligand) | 0% | 14%
10 | gD R36A (from UniProt A1Z0Q5 26-394) (ligand) | 0% | 0%
11 | gD Q27T (ligand) | 0% | 0%
12 | gDΔ6-24:GSK (ligand) | 0% | 19%
13 | gD L9R (ligand) | 0% | 97%
14 | gD L44G (ligand) | 0% | 8%
15 | gDΔ2-5 (ligand) | 0% | 95%
16 | gD D30V (ligand) | 0% | 8%
17 | gD R36I (from UniProt A1Z0Q5 26-394) (ligand) | 0% | 0%
18 | gD L28G (ligand) | 0% | 100%
19 | gD D6A (ligand) | 0% | 99%
20 | gD A7R (ligand) | 0% | 98%
21 | gD Q27P (rid1) (ligand) | 0% | 83%
22 | gD I40N (from UniProt A1Z0Q5 26-394) (ligand) | 0% | 0%
23 | gD Q27S (ligand) | 0% | 9%
24 | gD D26H (from UniProt A1Z0Q5 26-394) (ligand) | 10% | 11%
25 | gD D6L (ligand) | 0% | 98%
26 | gD L9P (ligand) | 0% | 100%
27 | gD L28F (ligand) | 0% | 41%
28 | gD^-R (gD A5I) (ligand) | 85% | 100%

Row | Substance | % Complementation, CHO-HveA (HveA on CHO-HveA cells) | % Complementation, CHO-HveC (HveC on CHO-HveC cells)
29 | gD T29G (ligand) | 0% | 100%
30 | gD L25D (from UniProt A1Z0Q5 26-394) (ligand) | 0% | 14%
31 | gD S8A (ligand) | 40% | 100%
32 | gD L25H (from UniProt A1Z0Q5 26-394) (ligand) | 0% | 12%
33 | gD L9A (ligand) | 0% | 100%
34 | gD A7H (ligand) | 80% | 100%
35 | gD L25I (from UniProt A1Z0Q5 26-394) (ligand) | 0% | 5%
36 | gD Q41P (ligand) | 0% | 18%
37 | gD H39V (ligand) | 75% | 66%
38 | gD T29Y (ligand) | 0% | 100%
39 | gD G33L (from UniProt A1Z0Q5 26-394) (ligand) | 9% | 79%
40 | gDΔ21-24 (ligand) | 0% | 100%
41 | gD I40A (ligand) | 0% | 0%
42 | gDΔ17-21 (ligand) | 0% | 100%
43 | gDΔ6-9 (ligand) | 0% | 100%
44 | gD L28S (ligand) | 0% | 83%
45 | gD S8L (ligand) | 0% | 99%
46 | gD H39Q (ligand) | 50% | 100%
47 | gD R36D (from UniProt A1Z0Q5 26-394) (ligand) | 0% | 0%
48 | gD Q27G (ligand) | 0% | 0%
49 | gD P32H (from UniProt A1Z0Q5 26-394) (ligand) | 6% | 100%
50 | gD L28P (ligand) | 0% | 69%
51 | gD D30I (ligand) | 0% | 4%
52 | gD D26S (ligand) | 20% | 7%
53 | gD L44C (ligand) | 69% | 83%
54 | gD A7L (ligand) | 0% | 100%
55 | gD L28C (ligand) | 0% | 100%

From patent publication US20020090382A1, “Antiviral compounds and methods” (University of Pittsburgh of the Commonwealth System of …, priority 2000, published 2002)
